What was measured:
Experiment in all cases: cell-based or functional assay
[1] = biological target: HIV-1 envelope (Env) of virus AC10.0.29 (HIV-1)
[2] = biological target: HIV-1 envelope (Env) of virus CAP45.2.00.G3 (HIV-1)
[3] = biological target: HIV-1 envelope (Env) of virus CNE20 (HIV-1)
[4] = biological target: HIV-1 envelope (Env) of virus DU172.17 (HIV-1)
[5] = biological target: HIV-1 envelope (Env) of virus REJO4541.67 (HIV-1)
[6] = biological target: HIV-1 envelope (Env) of virus WITO4160.33 (HIV-1)

3BNC117 (antibody)
IC50 of viral neutralization (Env.IMC.LucR virus, TZM-BL reporter cells) [1]: 11 µg/mL
IC50 of viral neutralization (Env.IMC.LucR virus, TZM-BL reporter cells) [2]: 2.7 µg/mL
IC50 of viral neutralization (Env.IMC.LucR virus, TZM-BL reporter cells) [3]: > 50 µg/mL
IC50 of viral neutralization (Env.IMC.LucR virus, TZM-BL reporter cells) [4]: 1.25 µg/mL
IC50 of viral neutralization (Env.IMC.LucR virus, TZM-BL reporter cells) [5]: 0.07 µg/mL
IC50 of viral neutralization (Env.IMC.LucR virus, TZM-BL reporter cells) [6]: 0.053 µg/mL

— patent US20210040185A1
